How the values were obtained:
Details in all cases: dNTP incorporation; background <500
[1] = tested on: T1, DNA polymerase clone 2783GBS (uncultured hot spring virus (Great Boiling Spring))
T1 sequence: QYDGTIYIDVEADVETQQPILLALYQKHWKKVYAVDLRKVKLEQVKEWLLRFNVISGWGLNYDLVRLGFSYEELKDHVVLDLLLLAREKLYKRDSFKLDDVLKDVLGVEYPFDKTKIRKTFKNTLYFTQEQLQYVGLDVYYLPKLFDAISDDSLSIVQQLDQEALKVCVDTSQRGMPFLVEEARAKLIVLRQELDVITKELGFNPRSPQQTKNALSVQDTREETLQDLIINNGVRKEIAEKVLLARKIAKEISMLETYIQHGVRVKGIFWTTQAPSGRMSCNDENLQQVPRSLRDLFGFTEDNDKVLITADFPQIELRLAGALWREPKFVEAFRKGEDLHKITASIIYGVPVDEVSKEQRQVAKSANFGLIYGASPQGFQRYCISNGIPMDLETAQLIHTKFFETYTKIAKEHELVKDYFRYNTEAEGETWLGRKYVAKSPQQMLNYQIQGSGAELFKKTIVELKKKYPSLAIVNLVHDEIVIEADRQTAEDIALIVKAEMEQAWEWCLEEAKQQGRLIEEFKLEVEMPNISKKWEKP

[2] = tested on: T2, DNA polymerase clone 1937 (uncultured hot spring virus (Great Boiling Spring))
T2 sequence: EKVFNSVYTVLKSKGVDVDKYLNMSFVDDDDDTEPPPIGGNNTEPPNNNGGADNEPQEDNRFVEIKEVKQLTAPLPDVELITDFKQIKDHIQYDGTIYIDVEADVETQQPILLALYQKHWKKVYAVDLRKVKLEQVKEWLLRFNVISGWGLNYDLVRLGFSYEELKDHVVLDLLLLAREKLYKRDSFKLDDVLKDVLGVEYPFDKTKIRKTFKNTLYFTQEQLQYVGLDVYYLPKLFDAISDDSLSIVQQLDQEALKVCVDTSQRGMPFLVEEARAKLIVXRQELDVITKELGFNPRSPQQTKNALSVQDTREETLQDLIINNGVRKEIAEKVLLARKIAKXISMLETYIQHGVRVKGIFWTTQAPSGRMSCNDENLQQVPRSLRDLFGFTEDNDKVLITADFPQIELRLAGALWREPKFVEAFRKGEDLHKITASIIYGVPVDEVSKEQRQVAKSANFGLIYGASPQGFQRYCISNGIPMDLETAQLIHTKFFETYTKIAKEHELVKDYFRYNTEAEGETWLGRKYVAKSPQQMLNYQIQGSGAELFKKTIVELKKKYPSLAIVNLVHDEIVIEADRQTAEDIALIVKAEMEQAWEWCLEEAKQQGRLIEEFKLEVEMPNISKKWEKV

[3] = tested on: T3, DNA polymerase clone 1128 (uncultured hot spring virus (Great Boiling Spring))
T3 sequence: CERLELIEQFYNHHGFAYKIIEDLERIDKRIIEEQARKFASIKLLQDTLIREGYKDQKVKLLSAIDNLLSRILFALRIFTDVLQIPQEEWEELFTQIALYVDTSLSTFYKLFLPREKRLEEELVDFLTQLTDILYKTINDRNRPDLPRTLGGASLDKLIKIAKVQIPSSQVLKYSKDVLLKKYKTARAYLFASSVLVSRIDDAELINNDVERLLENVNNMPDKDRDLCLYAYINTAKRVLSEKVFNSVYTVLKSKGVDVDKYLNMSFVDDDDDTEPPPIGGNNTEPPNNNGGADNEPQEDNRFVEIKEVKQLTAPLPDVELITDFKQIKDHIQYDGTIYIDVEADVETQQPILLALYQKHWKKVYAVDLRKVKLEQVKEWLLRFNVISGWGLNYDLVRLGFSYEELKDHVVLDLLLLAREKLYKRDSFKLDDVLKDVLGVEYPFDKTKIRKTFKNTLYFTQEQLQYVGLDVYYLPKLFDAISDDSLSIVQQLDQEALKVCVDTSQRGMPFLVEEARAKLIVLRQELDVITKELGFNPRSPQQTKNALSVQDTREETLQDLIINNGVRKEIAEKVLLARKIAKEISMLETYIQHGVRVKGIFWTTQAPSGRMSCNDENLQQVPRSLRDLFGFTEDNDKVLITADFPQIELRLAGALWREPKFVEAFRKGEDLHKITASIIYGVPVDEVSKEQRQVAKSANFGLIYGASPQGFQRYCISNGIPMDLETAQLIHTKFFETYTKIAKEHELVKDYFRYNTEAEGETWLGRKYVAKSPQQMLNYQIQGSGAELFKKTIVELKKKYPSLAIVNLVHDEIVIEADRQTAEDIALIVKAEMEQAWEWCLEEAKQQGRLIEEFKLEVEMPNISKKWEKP

[4] = tested on: T4, DNA polymerase clone 347 (uncultured hot spring virus (Great Boiling Spring))
T4 sequence: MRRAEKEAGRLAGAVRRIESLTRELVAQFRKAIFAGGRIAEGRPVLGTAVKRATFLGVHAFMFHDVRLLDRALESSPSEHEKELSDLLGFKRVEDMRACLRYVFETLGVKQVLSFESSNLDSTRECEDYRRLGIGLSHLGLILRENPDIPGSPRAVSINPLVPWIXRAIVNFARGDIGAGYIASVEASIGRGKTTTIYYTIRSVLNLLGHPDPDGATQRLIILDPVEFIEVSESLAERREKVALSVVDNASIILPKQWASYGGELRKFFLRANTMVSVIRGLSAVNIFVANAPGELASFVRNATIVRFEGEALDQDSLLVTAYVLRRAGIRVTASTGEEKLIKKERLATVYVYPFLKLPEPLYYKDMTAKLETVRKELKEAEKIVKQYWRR

Work on activated calf thymus DNA yielded an activity [1] of 11500 cpm, an activity [2] of 70300 cpm and an activity [3] of 16400 cpm. For the same substance, the activity [4] was 18700 cpm.
